B1: OR4K15 (parent)
chain: GUUAACGGUCAUAGGCCAUGGAAACUAGGAGCACCAUUUCGCUGCCAGUGAAGAAAUGAACAAAGAAAAUCUGGGCCAGGCAGGCAUCAAAAGAAAUAGUCUUGCGCUCAACCAGAAAGUCUGUAAUCAUUUUAAGGGUA

In the series the parent is B1. The experiment in a line: self-cleavage, relative activity (ratio to wild type); higher = more cleavage; in vitro, sequencing; the parent is a self-cleaving ribozyme.
Consider G20U A47G, for which the self-cleavage was determined as 1.08.

Turning to A22G A59U, the self-cleavage was 1.11. On to A22G A59C, for which the self-cleavage was found to be 1.17. As to A22U U39C, the self-cleavage is 0.34. Turning to A23G A118U, the self-cleavage worked out at 0.78. On to A23G A118G, for which the self-cleavage was 0.75. On to A23G A116G, for which the self-cleavage was determined as 0.47. As for G20A A92G, the figure is 2.46. For the variant G20A A92U, the self-cleavage turned out to be 0.79. For A22G G48A, the self-cleavage turned out to be 1.56.

In the case of A23C G83A, the self-cleavage stood at 2.28. A22G U57C: the self-cleavage came to 0.91. Take A22G A27G: the self-cleavage amounted to 1.04. Regarding A22G A33G, the self-cleavage is 0.98. The figure for A22G A33U is 1.4; for G21A A78U it is 0.86. As for G21A G138A, the figure is 0.84. Turning to A22G C34U, the self-cleavage came to 1.33.

Regarding A22G A52U, the self-cleavage came out at 1.02. For the variant A22G A60G, the self-cleavage is 0.94. G20A A56G: the self-cleavage was determined as 1.66. Consider A22U A69C, for which the self-cleavage is 0.47.

Take A22U A69U: the self-cleavage is 2.67. The figure for G21A U122G is 2.56.

As to U19C C121A, the self-cleavage was determined as 2.88. With A22U A36U, the self-cleavage amounted to 1.53. The figure for A22U A36G is 1.48.

As for A22G C46U, the self-cleavage turned out to be 1.36. In the case of A23G A91G, the self-cleavage stood at 0.7. Turning to A23G A91C, the self-cleavage amounted to 1.49. Regarding A22G A36U, the self-cleavage is 0.87. The figure for U19C G93U is 1.5; for G21A G106A it is 0.02.

Consider A23G U43C, for which the self-cleavage came to 1.38. Turning to A23G G75A, the self-cleavage came out at 0.19. The figure for A23G G53A is 1.7. As to A22G U38C, the self-cleavage came to 1.62. A22G U39A: the self-cleavage is 1.39. Regarding A22G U39C, the self-cleavage came to 1.67.

As to A22G A98G, the self-cleavage is 0.88. Turning to A23G A95U, the self-cleavage was found to be 2.26.

With G21A A69U, the self-cleavage is 1.48. Turning to A23G A64G, the self-cleavage came to 0.58.

Turning to A23G A64U, the self-cleavage is 1.2. For A22U A135G, the self-cleavage turned out to be 0.4. As for A23G A125G, the self-cleavage was 0.4. With A22G G58A, the self-cleavage is 0.55.

For A22C A96G, the self-cleavage is 2.53.

U19C U26C: the self-cleavage came to 1.24. The figure for G21A A95G is 2.07; for A22C U38C it is 2.55; for A22G A110U it is 0.8. As for A22G A110C, the figure is 0.3. With A22G A110G, the self-cleavage was 0.08. Turning to A22C A89C, the self-cleavage is 1.57. In the case of A22U A90G, the self-cleavage was determined as 0.91.

For A22U U49A, the self-cleavage came out at 1.78. For the variant A23G A96U, the self-cleavage is 1.17.

U19C G31A: the self-cleavage is 0.83. On to U19C G31U, for which the self-cleavage is 1.29. In the case of A22G A126G, the self-cleavage came to 0.85.

On to A22G A126U, for which the self-cleavage amounted to 0.92.

On to A22U U108C, for which the self-cleavage was determined as 0.03. Consider U19C U38C, for which the self-cleavage was 1.22. Take G21A A67G: the self-cleavage worked out at 1.78.

With G21A A94G, the self-cleavage worked out at 1.81.

In the case of A23C A27G, the self-cleavage was determined as 0.28. As for A23G A135G, the figure is 1.13; as for A23G A135U, 1.78. The figure for A23G A126G is 0.76; for G20U it is 1.53.

Turning to G20C, the self-cleavage turned out to be 1.88. As for G20A, the figure is 1.55. A23G A62G: the self-cleavage was found to be 0.87. On to A23G A62U, for which the self-cleavage was found to be 1.09. Turning to U19C G44A, the self-cleavage was 0.78. The figure for G21U A82G is 0.98; for A22C A94U it is 2.06. On to A23G C61A, for which the self-cleavage stood at 1.45. For A23G C61G, the self-cleavage turned out to be 1.12. Take A23G C61U: the self-cleavage was found to be 1.24. With U19C U108A, the self-cleavage is 0.03. Regarding U19C U108C, the self-cleavage was found to be 0.02. A22G G31U: the self-cleavage was 0.75. Turning to A22G G31A, the self-cleavage came to 1.19. Regarding G20A A95U, the self-cleavage was 1.89. In the case of A22G U124G, the self-cleavage was determined as 0.96. For the variant A22U U100C, the self-cleavage came out at 2.44.

Turning to A22G G53C, the self-cleavage amounted to 1.81. Turning to A22U A129C, the self-cleavage is 1.58. As for A22G C32U, the figure is 0.91; as for A22G A23G, 1.09. As for G21A A27U, the figure is 1.32; as for G21A A90G, 0.38; as for G21A A116G, 0.46.

On to A23G G74A, for which the self-cleavage amounted to 0.14. Consider A22G A24U, for which the self-cleavage was 1.27. As to A22G A24G, the self-cleavage turned out to be 1. In the case of A22G A86G, the self-cleavage is 1.31. The figure for G21A A135C is 1.25; for U19G A69U it is 0.96. For the variant A23G U39C, the self-cleavage was 1.54. On to G21A A68G, for which the self-cleavage stood at 1.55. As for A23G A24G, the figure is 1.03; as for G20U U70C, 0.6. Take G20A A24G: the self-cleavage was determined as 0.1. As for U19G A23G, the figure is 0.83. As for G21A A140G, the self-cleavage turned out to be 1.48. For A23G G80U, the self-cleavage was 0.23. Take G20A A66G: the self-cleavage turned out to be 1.21. As for U19C U97C, the self-cleavage stood at 1.5. As to U19C U97A, the self-cleavage came to 1.34. As for A22G A63U, the figure is 1.15. For G20A A91U, the self-cleavage came to 2.07. Regarding A23G A114U, the self-cleavage came out at 0.07. Consider A23G A114G, for which the self-cleavage worked out at 0.54. The figure for U19C U124C is 0.87. As for A23G C113U, the self-cleavage stood at 0.05. On to A22U C121A, for which the self-cleavage was 2.6. As for A22U U97C, the figure is 0.69; as for A22U A96U, 1.54; as for A22U A96G, 1.57.

On to A23G A30G, for which the self-cleavage was 1.1. Consider A23G A30U, for which the self-cleavage amounted to 0.82. Regarding G20U U37C, the self-cleavage is 1.37. Turning to A23G A69G, the self-cleavage amounted to 0.91. Consider A22G U100C, for which the self-cleavage was 1.69. The figure for A22G U100A is 0.54; for A22G A111G it is 0.05; for A22G A111U it is 0.04. With A22U A126C, the self-cleavage came out at 1.34. For the variant A23G A67G, the self-cleavage came out at 1.11. As to A22G A68G, the self-cleavage came out at 1.31. In the case of U19G A140G, the self-cleavage is 1.51. With G20A U49A, the self-cleavage turned out to be 1.67. As for A22G C81U, the figure is 0.53; as for G21A U70C, 1.39; as for G21U U87C, 1.55. Regarding A23G A129G, the self-cleavage was found to be 0.35.

With A23G A129C, the self-cleavage was 0.82. On to A22U A78U, for which the self-cleavage came to 0.33. With A23G A60G, the self-cleavage amounted to 0.97. As for A23C A62G, the figure is 0.57; as for A22U A117G, 1.06; as for A23C A30G, 0.62. On to A22U A24G, for which the self-cleavage is 1.01.

A23G A54G: the self-cleavage is 0.6. As for U19G C105G, the self-cleavage stood at 0.05. The figure for G21A A30G is 1.51. As for U19G A64G, the figure is 1.49; as for G20U A94U, 2.23.

Turning to A22G A114U, the self-cleavage was determined as 0.08.

A22U U87C: the self-cleavage came to 0.88. As for A22U U87A, the self-cleavage worked out at 1.53. As for G20U U72C, the figure is 0.14; as for A23G C101U, 0.35; as for A22G A125G, 0.57. For the variant U19C U133C, the self-cleavage turned out to be 2.01.

A23G A134G: the self-cleavage was 0.76. As for A23G A134U, the self-cleavage is 0.77. Regarding A22U A62U, the self-cleavage worked out at 1.58. As for A22G U127G, the figure is 1.34; as for A22G U127A, 2.2. Consider A22G U127C, for which the self-cleavage was 0.43. Turning to A22G A69C, the self-cleavage was determined as 0.68. For A22G A56G, the self-cleavage was determined as 1.01. For the variant A23G G41C, the self-cleavage was found to be 1.01.
